For two molecules, number printed in the same gate of the dot plot, binding result and number printed in the hCEACAM1 (5F4)-positive gate of the dot plot results are on record in patent publication US20140328841A1 (BRIGHAM AND WOMEN S HOSPITAL, published 2014).

The target in assay [1] is T1, mouse CEACAM1 (mouse, UniProt P31809 35-521, limits assumed).
T1 sequence (looked up): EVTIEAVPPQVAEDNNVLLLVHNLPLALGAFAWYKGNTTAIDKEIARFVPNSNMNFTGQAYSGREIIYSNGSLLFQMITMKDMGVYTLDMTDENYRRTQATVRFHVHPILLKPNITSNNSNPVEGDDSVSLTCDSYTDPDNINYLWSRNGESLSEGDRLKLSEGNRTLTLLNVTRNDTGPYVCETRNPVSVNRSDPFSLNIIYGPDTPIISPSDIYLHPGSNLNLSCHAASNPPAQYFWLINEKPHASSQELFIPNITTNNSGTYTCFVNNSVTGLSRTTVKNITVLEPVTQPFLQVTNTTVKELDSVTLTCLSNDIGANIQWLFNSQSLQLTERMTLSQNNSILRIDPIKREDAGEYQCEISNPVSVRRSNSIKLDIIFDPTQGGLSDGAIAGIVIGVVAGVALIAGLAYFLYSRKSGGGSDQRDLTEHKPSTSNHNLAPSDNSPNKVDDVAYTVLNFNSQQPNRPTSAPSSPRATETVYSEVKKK
The assay can be described thus: flow cytometry dot plot (x: mIgG1 CONTROL, y: FITC). Cells of the 5F4-treated mouse group, isotype control staining for the 5F4 panel above it. (In general: A flow cytometer gives signals particle by particle.)

Assay [2] has as its target human CEACAM1 (human) (UniProt P13688). The assay is described as follows: flow cytometry dot plot (x: mIgG1 CONTROL, y: FITC). Cells of the MOPC-treated mouse group, isotype control staining for the 5F4 panel above it.
Assay [3] addresses T1, mouse CEACAM1. The assay is described as follows: flow cytometry, 5F4 staining of lymph node cells of the 5F4-treated mouse group (mouse cells; per the legend no human CEACAM1+ cells present).
The target of assay [4] is human CEACAM1 (human) (UniProt P13688). The assay can be described thus: flow cytometry dot plot (x: hCEACAM1 (5F4), y: FITC). Per the legend, axillary lymph node cells of an MOPC-treated Rag2-/- mouse 2 weeks after s.c. AsPc-1 inoculation. Gated events spread from about 10^3 to above 10^4 on the x axis. The panel is marked *.
Chain of human CEACAM1 (human) (P13688 35-526): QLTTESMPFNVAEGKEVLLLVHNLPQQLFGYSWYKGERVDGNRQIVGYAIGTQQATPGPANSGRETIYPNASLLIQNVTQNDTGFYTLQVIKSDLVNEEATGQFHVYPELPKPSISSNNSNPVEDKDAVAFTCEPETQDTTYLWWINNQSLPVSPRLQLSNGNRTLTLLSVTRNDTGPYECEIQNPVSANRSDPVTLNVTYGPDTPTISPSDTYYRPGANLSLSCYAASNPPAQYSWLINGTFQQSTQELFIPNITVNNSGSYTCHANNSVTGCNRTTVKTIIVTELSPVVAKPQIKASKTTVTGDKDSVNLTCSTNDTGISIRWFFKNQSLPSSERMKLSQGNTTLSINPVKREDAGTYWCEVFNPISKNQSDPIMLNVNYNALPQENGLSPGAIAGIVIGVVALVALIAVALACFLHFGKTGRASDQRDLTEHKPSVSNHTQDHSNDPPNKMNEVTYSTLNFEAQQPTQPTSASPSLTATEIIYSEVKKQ

On to mIgG1 CONTROL (antibody), for which the number printed in the same gate of the dot plot with mouse CEACAM1 [1] is 1.27; with human CEACAM1 (human) [2], 0.667.

B1: 5F4 mouse anti-human CEACAM1 monoclonal antibody (hybridoma 5F4/2C6/2H3) (antibody, mouse IgG1, V domains shown)
VH: EVQLVESGGDLVKPGGSLKLACAASGFIFSSHGMSWVRQTPDKRLEWVATISSGGTYTYYPDSVKGRFTISRDNDKNTLYLQMNSLKSEDTAMYYCARHDFDYDAAWFAYWGQGTLVTVSA
VL: QIVLTQSPALMSASPGVKVTMTCSANSSVSYMYWYRQKPRSSPKPWIYLTSNLASGVPARFSGSGSGTSYSLTISSMEAEDAATYYCQQWSSNPPTFGSGTKLEIK
notes: also called 5F4 antibody; 5F4 monoclonal antibody
With B1, the binding result in the assay with mouse CEACAM1 [3] is “no binding”. Also, the number printed in the hCEACAM1 (5F4)-positive gate of the dot plot in the assay with human CEACAM1 (human) [4] came out at 2.15.
